# Experimental data published in US12099068B2, “Biomarkers for graft-versus-host disease” (Incyte Corporation, priority 2018, dated 2024).
# B1: INPPL1 (protein, UniProt O15357 1-1258, looked up)
# Phosphatidylinositol …: MASACGAPGPGGALGSQAPSWYHRDLSRAAAEELLARAGRDGSFLVRDSESVAGAFALCVLYQKHVHTYRILPDGEDFLAVQTSQGVPVRRFQTLGELIGLYAQPNQGLVCALLLPVEGEREPDPPDDRDASDGEDEKPPLPPRSGSTSISAPTGPSSPLPAPETPTAPAAESAPNGLSTVSHDYLKGSYGLDLEAVRGGASHLPHLTRTLATSCRRLHSEVDKVLSGLEILSKVFDQQSSPMVTRLLQQQNLPQTGEQELESLVLKLSVLKDFLSGIQKKALKALQDMSSTAPPAPQPSTRKAKTIPVQAFEVKLDVTLGDLTKIGKSQKFTLSVDVEGGRLVLLRRQRDSQEDWTTFTHDRIRQLIKSQRVQNKLGVVFEKEKDRTQRKDFIFVSARKREAFCQLLQLMKNKHSKQDEPDMISVFIGTWNMGSVPPPKNVTSWFTSKGLGKTLDEVTVTIPHDIYVFGTQENSVGDREWLDLLRGGLKELTDLDYRPIAMQSLWNIKVAVLVKPEHENRISHVSTSSVKTGIANTLGNKGAVGVSFMFNGTSFGFVNCHLTSGNEKTARRNQNYLDILRLLSLGDRQLNAFDISLRFTHLFWFGDLNYRLDMDIQEILNYISRKEFEPLLRVDQLNLEREKHKVFLRFSEEEISFPPTYRYERGSRDTYAWHKQKPTGVRTNVPSWCDRILWKSYPETHIICNSYGCTDDIVTSDHSPVFGTFEVGVTSQFISKKGLSKTSDQAYIEFESIEAIVKTASRTKFFIEFYSTCLEEYKKSFENDAQSSDNINFLKVQWSSRQLPTLKPILADIEYLQDQHLLLTVKSMDGYESYGECVVALKSMIGSTAQQFLTFLSHRGEETGNIRGSMKVRVPTERLGTRERLYEWISIDKDEAGAKSKAPSVSRGSQEPRSGSRKPAFTEASCPLSRLFEEPEKPPPTGRPPAPPRAAPREEPLTPRLKPEGAPEPEGVAAPPPKNSFNNPAYYVLEGVPHQLLPPEPPSPARAPVPSATKNKVAITVPAPQLGHHRHPRVGEGSSSDEESGGTLPPPDFPPPPLPDSAIFLPPSLDPLPGPVVRGRGGAEARGPPPPKAHPRPPLPPGPSPASTFLGEVASGDDRSCSVLQMAKTLSEVDYAPAGPARSALLPGPLELQPPRGLPSDYGRPLSFPPPRIRESIQEDLAEEAPCLQGGRASGLGEAGMSAWLRAIGLERYEEGLVHNGWDDLEFLSDITEEDLEEAGVQDPAHKRLLLDTLQLSK
# B2: KLRD1 (protein, UniProt Q13241 1-179, looked up)
# Natural killer cells antigen …: MAVFKTTLWRLISGTLGIICLSLMSTLGILLKNSFTKLSIEPAFTPGPNIELQKDSDCCSCQEKWVGYRCNCYFISSEQKTWNESRHLCASQKSSLLQLQNTDELDFMSSSQQFYWIGLSYSEEHTAWLWENGSALSQYLFPSFETFNTKNCIAYNPNGNALDESCEDKNRYICKQQLI
# B3: TMPRSS15 (protein, UniProt P98073 2-784; P98073 785-1019, looked up)
# Enteropeptidase non-catalytic …: GSKRGISSRHHSLSSYEIMFAALFAILVVLCAGLIAVSCLTIKESQRGAALGQSHEARATFKITSGVTYNPNLQDKLSVDFKVLAFDLQQMIDEIFLSSNLKNEYKNSRVLQFENGSIIVVFDLFFAQWVSDENVKEELIQGLEANKSSQLVTFHIDLNSVDILDKLTTTSHLATPGNVSIECLPGSSPCTDALTCIKADLFCDGEVNCPDGSDEDNKMCATVCDGRFLLTGSSGSFQATHYPKPSETSVVCQWIIRVNQGLSIKLSFDDFNTYYTDILDIYEGVGSSKILRASIWETNPGTIRIFSNQVTATFLIESDESDYVGFNATYTAFNSSELNNYEKINCNFEDGFCFWVQDLNDDNEWERIQGSTFSPFTGPNFDHTFGNASGFYISTPTGPGGRQERVGLLSLPLDPTLEPACLSFWYHMYGENVHKLSINISNDQNMEKTVFQKEGNYGDNWNYGQVTLNETVKFKVAFNAFKNKILSDIALDDISLTYGICNGSLYPEPTLVPTPPPELPTDCGGPFELWEPNTTFSSTNFPNSYPNLAFCVWILNAQKGKNIQLHFQEFDLENINDVVEIRDGEEADSLLLAVYTGPGPVKDVFSTTNRMTVLLITNDVLARGGFKANFTTGYHLGIPEPCKADHFQCKNGECVPLVNLCDGHLHCEDGSDEADCVRFFNGTTNNNGLVRFRIQSIWHTACAENWTTQISNDVCQLLGLGSGNSSKPIFPTDGGPFVKLNTAPDGHLILTPSQQCLQDSLIRLQCNHKSCGKKLAAQDITPK
# Enteropeptidase catalytic …: IVGGSNAKEGAWPWVVGLYYGGRLLCGASLVSSDWLVSAAHCVYGRNLEPSKWTAILGLHMKSNLTSPQTVPRLIDEIVINPHYNRRRKDNDIAMMHLEFKVNYTDYIQPICLPEENQVFPPGRNCSIAGWGTVVYQGTTANILQEADVPLLSNERCQQQMPEYNITENMICAGYEEGGIDSCQGDSGGPLMCQENNRWFLAGVTSFGYKCALPNRPGVYARVSRFTEWIQSFLH
# B4: SKAP1 (protein, UniProt Q86WV1 1-359, looked up)
# Src kinase-associated …: MQAAALPEEIRWLLEDAEEFLAEGLRNENLSAVARDHRDHILRGFQQIKARYYWDFQPQGGDIGQDSSDDNHSGTLGLSLTSDAPFLSDYQDEGMEDIVKGAQELDNVIKQGYLEKKSKDHSFFGSEWQKRWCVVSRGLFYYYANEKSKQPKGTFLIKGYGVRMAPHLRRDSKKESCFELTSQDRRSYEFTATSPAEARDWVDQISFLLKDLSSLTIPYEEDEEEEEKEETYDDIDGFDSPSCGSQCRPTILPGSVGIKEPTEEKEEEDIYEVLPDEEHDLEEDESGTRRKGVDYASYYQGLWDCHGDQPDELSFQRGDLIRILSKEYNMYGWWVGELNSLVGIVPKEYLTTAFEVEER
# B5: ERBB2IP (protein, UniProt Q96RT1 1-1412, looked up)
# Erbin: MTTKRSLFVRLVPCRCLRGEEETVTTLDYSHCSLEQVPKEIFTFEKTLEELYLDANQIEELPKQLFNCQSLHKLSLPDNDLTTLPASIANLINLRELDVSKNGIQEFPENIKNCKVLTIVEASVNPISKLPDGFSQLLNLTQLYLNDAFLEFLPANFGRLTKLQILELRENQLKMLPKTMNRLTQLERLDLGSNEFTEVPEVLEQLSGLKEFWMDANRLTFIPGFIGSLKQLTYLDVSKNNIEMVEEGISTCENLQDLLLSSNSLQQLPETIGSLKNITTLKIDENQLMYLPDSIGGLISVEELDCSFNEVEALPSSIGQLTNLRTFAADHNYLQQLPPEIGSWKNITVLFLHSNKLETLPEEMGDMQKLKVINLSDNRLKNLPFSFTKLQQLTAMWLSDNQSKPLIPLQKETDSETQKMVLTNYMFPQQPRTEDVMFISDNESFNPSLWEEQRKQRAQVAFECDEDKDEREAPPREGNLKRYPTPYPDELKNMVKTVQTIVHRLKDEETNEDSGRDLKPHEDQQDINKDVGVKTSESTTTVKSKVDEREKYMIGNSVQKISEPEAEISPGSLPVTANMKASENLKHIVNHDDVFEESEELSSDEEMKMAEMRPPLIETSINQPKVVALSNNKKDDTKETDSLSDEVTHNSNQNNSNCSSPSRMSDSVSLNTDSSQDTSLCSPVKQTHIDINSKIRQEDENFNSLLQNGDILNSSTEEKFKAHDKKDFNLPEYDLNVEERLVLIEKSVDSTATADDTHKLDHINMNLNKLITNDTFQPEIMERSKTQDIVLGTSFLSINSKEETEHLENGNKYPNLESVNKVNGHSEETSQSPNRTEPHDSDCSVDLGISKSTEDLSPQKSGPVGSVVKSHSITNMEIGGLKIYDILSDNGPQQPSTTVKITSAVDGKNIVRSKSATLLYDQPLQVFTGSSSSSDLISGTKAIFKFDSNHNPEEPNIIRGPTSGPQSAPQIYGPPQYNIQYSSSAAVKDTLWHSKQNPQIDHASFPPQLLPRSESTENQSYAKHSANMNFSNHNNVRANTAYHLHQRLGPARHGEMWAISPNDRLIPAVTRSTIQRQSSVSSTASVNLGDPGSTRRAQIPEGDYLSYREFHSAGRTPPMMPGSQRPLSARTYSIDGPNASRPQSARPSINEIPERTMSVSDFNYSRTSPSKRPNARVGSEHSLLDPPGKSKVPRDWREQVLRHIEAKKLEKKHPQTSSSGDPCQDGIFISGQQNYSSATLSHKDVPPDSLMKMPLSNGQMGQPLRPQANYSQIHHPPQASVARHPSREQLIDYLMLKVAHQPPYTQPHCSPRQGHELAKQEIRVRVEKDPELGFSISGGVGGRGNPFRPDDDGIFVTRVQPEGPASKLLQPGDKIIQANGYSFINIEHGQAVSLLKTFQNTVELIIVREVSS
# B6: CD177 (protein, UniProt Q8N6Q3 22-408, looked up)
# CD177 antigen: LLCQFGTVQHVWKVSDLPRQWTPKNTSCDSGLGCQDTLMLIESGPQVSLVLSKGCTEAKDQEPRVTEHRMGPGLSLISYTFVCRQEDFCNNLVNSLPLWAPQPPADPGSLRCPVCLSMEGCLEGTTEEICPKGTTHCYDGLLRLRGGGIFSNLRVQGCMPQPGCNLLNGTQEIGPVGMTENCNRKDFLTCHRGTTIMTHGNLAQEPTDWTTSNTEMCEVGQVCQETLLLLDVGLTSTLVGTKGCSTVGAQNSQKTTIHSAPPGVLVASYTHFCSSDLCNSASSSSVLLNSLPPQAAPVPGDRQCPTCVQPLGTCSSGSPRMTCPRGATHCYDGYIHLSGGGLSTKMSIQGCVAQPSSFLLNHTRQIGIFSAREKRDVQPPASQHEGG
# B7: VEGFD (protein, UniProt O43915 89-205, looked up)
# Vascular endothelial growth …: FAATFYDIETLKVIDEEWQRTQCSPRETCVEVASELGKSTNTFFKPPCVNVFRCGGCCNEESLICMNTSTSYISKQLFEISVPLTSVPELVPVKVANHTGCKCLPTAPRHPYSIIRR
# B8: FCRL5 (protein, UniProt Q96RD9 16-977, looked up)
# Fc receptor-like protein 5: QFARTPRPIIFLQPPWTTVFQGERVTLTCKGFRFYSPQKTKWYHRYLGKEILRETPDNILEVQESGEYRCQAQGSPLSSPVHLDFSSASLILQAPLSVFEGDSVVLRCRAKAEVTLNNTIYKNDNVLAFLNKRTDFHIPHACLKDNGAYRCTGYKESCCPVSSNTVKIQVQEPFTRPVLRASSFQPISGNPVTLTCETQLSLERSDVPLRFRFFRDDQTLGLGWSLSPNFQITAMWSKDSGFYWCKAATMPYSVISDSPRSWIQVQIPASHPVLTLSPEKALNFEGTKVTLHCETQEDSLRTLYRFYHEGVPLRHKSVRCERGASISFSLTTENSGNYYCTADNGLGAKPSKAVSLSVTVPVSHPVLNLSSPEDLIFEGAKVTLHCEAQRGSLPILYQFHHEGAALERRSANSAGGVAISFSLTAEHSGNYYCTADNGFGPQRSKAVSLSVTVPVSHPVLTLSSAEALTFEGATVTLHCEVQRGSPQILYQFYHEDMPLWSSSTPSVGRVSFSFSLTEGHSGNYYCTADNGFGPQRSEVVSLFVTVPVSRPILTLRVPRAQAVVGDLLELHCEAPRGSPPILYWFYHEDVTLGSSSAPSGGEASFNLSLTAEHSGNYSCEANNGLVAQHSDTISLSVIVPVSRPILTFRAPRAQAVVGDLLELHCEALRGSSPILYWFYHEDVTLGKISAPSGGGASFNLSLTTEHSGIYSCEADNGLEAQRSEMVTLKVAVPVSRPVLTLRAPGTHAAVGDLLELHCEALRGSPLILYRFFHEDVTLGNRSSPSGGASLNLSLTAEHSGNYSCEADNGLGAQRSETVTLYITGLTANRSGPFATGVAGGLLSIAGLAAGALLLYCWLSRKAGRKPASDPARSPSDSDSQEPTYHNVPAWEELQPVYTNANPRGENVVYSEVRIIQEKKKHAVASDPRHLRNKGSPIIYSEVKVASTPVSGSLFLASSAPHR
# System: plasma proteins
# Assay: Plasma proteins modulated between baseline and day 28 in responders (CR, VGPR, PR; n = 19), Example 6 (Table 13)
# Assay type: in vivo, human
# Settings: plasma protein (OLINK NPX); responders (CR, VGPR, PR; n = 19); itacitinib 200 mg or 300 mg QD with corticosteroids; day 28 vs baseline
# Summary of the method: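 Longitudinal comparison, day 28 versus baseline, with steroid-naive (N=10) and steroid-refractory (N=18) patients combined. Proteins measured by OLINK proximity extension, log2 normalized protein expression. Differences tested by t tests, ANOVA, Pearson correlation, P<0.05 significant.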
Molecule,"Fold Change, Decreased Expression from Baseline to Day 28","Fold Change, Increased Expression from Baseline to Day 28"
B1,−1.7131,
B2,−1.8117,
B3,,3.0633
B4,−1.8075,
B5,−1.7337,
B6,−1.768,
B7,,1.147
B8,−1.3113,
